B1: HDV Ribozyme (parent)
chain: GGCCGGCAUGGUCCCAGCCUCCUCGCUGGCGCCGGCUGGGCAACAUUCCGAGGGGACCGUCCCCUCGGUAAUGGCGAAUGGGACCCA

Variants of: B1
Assay: self-cleavage, relative activity (ratio to wild type); higher = more cleavage; co-transcriptional

Row | Variant | self-cleavage
1 | G6C A56C | 0.401
2 | G6A U20G | 0.262
3 | G6C G54C | 0.604
4 | G5U G59A | 0.529
5 | G6A U23A | 0.569
6 | G6A U72A | 0.0875
7 | G6A U72G | 0.246
8 | G5U G55C | 0.465
9 | G6A C7A | 0.185
10 | G6A C7G | 0.208
11 | G5U U60C | 0.604
12 | G5U U60A | 0.447
13 | G6C G38C | 0
14 | G6C G11C | 0.138
15 | G6C G11A | 0
16 | G6A G76A | 0.744
17 | G6A | 0.726
18 | G6C | 0.294
19 | G5U G39A | 0.217
20 | G6A U79A | 0.322
21 | G6A U79C | 0.128
22 | G6C U37A | 0.0791
23 | G5U G82U | 0.128
24 | G5U G82A | 0.185

Row | Variant | self-cleavage
25 | G5U G81U | 0.166
26 | G6A G59A | 0.776
27 | G6C C66G | 0.332
28 | G6C C14U | 0.453
29 | G6C C14A | 0
30 | G6A A45U | 0.486
31 | G6A G34U | 0
32 | G6C G34A | 0.0536
33 | G6A A83C | 0.291
34 | G6A A83G | 0.302
35 | G6C C75U | 0.095
36 | G6C G50C | 0.554
37 | G6A A51U | 0.778
38 | G6C C36A | 0.095
39 | G6C G25U | 0.166
40 | G5U G73C | 0.249
41 | G6C A70G | 0.175
42 | G6C G82A | 0
43 | G6C G82C | 0.0405
44 | G5U U72C | 0.119
45 | G5U U72A | 0.128
46 | G5U U72G | 0.277
47 | G5U U79G | 0
48 | G6A G53A | 0.874

Row | Variant | self-cleavage
49 | G6A G53U | 0.786
50 | G6A C33U | 0.172
51 | G6A C33A | 0.0678
52 | G6C C22A | 0
53 | G6C C48U | 0.277
54 | G6C C30A | 0.0415
55 | G6A G81A | 0.282
56 | G6A G81U | 0.0773
57 | G6A G81C | 0.0378
58 | G6C C21A | 0
59 | G5U G29U | 0.0594
60 | G6C C86A | 0.482
61 | G5U U20C | 0
62 | G6C C44G | 0.0692
63 | G6C G68U | 0.277
64 | G6C A83G | 0.189
65 | G6A G29U | 0.0563
66 | G6A U60A | 0.811
67 | G6A U60G | 0.365
68 | G6A U60C | 0.789
69 | G6A C85A | 0.895
70 | G5U G17U | 0.18
71 | G6C C32A | 0.482
72 | G6C G73U | 0.0923

Row | Variant | self-cleavage
73 | G6C A51C | 0.225
74 | G5U G28C | 0.0554
75 | G6A G50U | 0.708
76 | G5U G50C | 0.192
77 | G6A U69A | 0.525
78 | G5U G52A | 0.283
79 | G5U G52C | 0.475
80 | G5U G52U | 0.277
81 | G6C G40A | 0.259
82 | G6C G76U | 0.604
83 | G6C G76A | 0.297
84 | G6A C84G | 0.122
85 | G6A C84U | 0.628
86 | G6A C14U | 0.87
87 | G5U U12A | 0.332
88 | G5U U12C | 0.0831
89 | G6A A87U | 0.602
90 | G5U U47C | 0.185
91 | G5U G53C | 0.489
92 | G5U G53A | 0.332
93 | G5U G53U | 0.268
94 | G6C G10C | 0.0875
95 | G6C A45G | 0.361
96 | G6C A45U | 0.0615

Row | Variant | self-cleavage
97 | G6A C61U | 0.899
98 | G6A G73U | 0.111
99 | G6A G73C | 0.312
100 | G6C C19A | 0
101 | G6C C19G | 0.192
102 | G6A U46A | 0.208
103 | G5U U46A | 0.119
104 | G5U G34U | 0.0426
105 | G6A U47A | 0.35
106 | G6A A8G | 0.554
107 | G6C G35U | 0.256
108 | G6C G35C | 0.0723
109 | G5U U65A | 0.453
110 | G6C A77G | 0.0791
111 | G6A C13U | 0.145
112 | G6A C19A | 0.0346
113 | G6C C18A | 0.0791
114 | G6C C18U | 0.0923
115 | G5U G11U | 0.156
116 | G5U G11A | 0.18
117 | G6C A87C | 0.312
118 | G6C A87U | 0.282
119 | G6A C41A | 0.326
120 | G6A C41U | 0.431

Row | Variant | self-cleavage
121 | G6A C41G | 0.107
122 | G6A G39A | 0.277
123 | G5U G54A | 0.314
124 | G5U U27A | 0.443
125 | G5U U27G | 0.665
126 | G5U G80U | 0.0405
127 | G6C C49U | 0.489
128 | G6C A16C | 0.712
129 | G6C A16G | 0.151
130 | G6A C64G | 0.604
131 | G6A C64A | 0.869
132 | G6A A16U | 0.446
133 | G6A A16C | 0.111
134 | G6A C44G | 0.111
135 | G5U G25C | 0
136 | G5U G25U | 0
137 | G6A G68A | 0.704
138 | G6A G67C | 0.643
139 | G6A A78C | 0.0615
140 | G6A A78G | 0.554
141 | G6A A42G | 0
142 | G6A G82A | 0.252
143 | G6C A43U | 0.0594
144 | G6A G10A | 0.372

Row | Variant | self-cleavage
145 | G6A G38A | 0.0554
146 | G6A G38C | 0
147 | G6A A77C | 0.178
148 | G6A U37C | 0.853
149 | G6A C66U | 0.521
150 | G6A C66A | 0.724
151 | G6C G80U | 0.0692
152 | G6A G35A | 0.302
153 | G6A C86G | 0.802
154 | G6A C86U | 0.759
155 | G6A A70G | 0.629
156 | G6C A42G | 0
157 | G6C U9A | 0.256
158 | G6A G80C | 0.0941
159 | G6C G53U | 0.138
160 | G6A G52A | 0.831
161 | G5U G76C | 0.227
162 | G6C G28C | 0
163 | G6C G55U | 0.177
164 | G6C G55C | 0.308
165 | G6A C24G | 0.108
166 | G6C G17C | 0
167 | G6A C26U | 0.787
